# Results as given in US9958461B2, “Detection of protein to protein interactions” (THE GOVERNING COUNCIL OF THE UNIVERSITY OF TORONTO, priority 2013, dated 2018).
# What was measured:
# [1] = molecular target: T1, EGFR-Wt (Homo sapiens, UniProt P00533); assay: MaMTH EGFR-interactor screen, lentiviral preys against EGFR-wildtype bait (interaction score); type: cell-based; conditions: MaMTH interaction score of prey with EGFR-Wt bait, mean
# T1 construct: with the advantage of testing full-length integral membrane proteins; (GGGGS)2 linker-Cub (human ubiquitin aa 35-76)-GAL4(1-147)-mNFkB(364-550) (C); expressed in transfected cells
# Protocol: (§1) After lentivirus harvest, target cells (stable 5×GAL4UAS-luciferase reporter-HEK293T cells) were infected at a multiplicity of infection (MOI) of around 0.3-0.4 to ensure single copy integration per cell. Cells were selected in puromycin for at least 48 h and transfected with either EGFR-wildtype or EGFR-L858R baits in triplicates. 24 h after transfection, cells were lysed and luciferase assays performed. On each set of interaction assays, various negative controls were included. To calculate a MaMTH-interaction scores, negative controls were averaged and the fold-change of luciferase activity compared to the averaged controls was calculated and defined as the interaction score.
# (§2) Each set of experiments contains a defined set of negative controls in at least three replicates. Negative controls were chosen as such that there is a range of controls showing high-background luciferase activity (normally cytosolic proteins: Fabp5, Pex19) as well as medium-background luciferase activity (membrane-bound interactors: Pex7, GABBR2). Negative controls were averaged and the fold-change of luciferase activity was calculated. Using this method, we have a stringent cut-off and chose an interaction score >1 to be interacting proteins.
# (§3) Our cut-off of 1 is based on fold-change difference in luciferase activity over averaged negative controls. Negative controls include cytosolic preys (which tend to promiscuously bind to many proteins), plasma membrane- and peroxisomal-prey proteins. In general, we chose stringent conditions by testing preys that tend to have high luciferase background with any bait tested, in order to generate high-confidence interaction data. […] Phosphorylated tyrosine residues on the receptor are typically docking sites for downstream cytoplasmic targets and recognized through SH2 or PTB domains^43.
# [2] = tested on: EGFR-Wt; assay: as above; type: cell-based, human; conditions: ratio of EGFR-Wt mean to EGFR-L858R mean interaction score
# Protocol: as §1, §2, §3
# [3] = molecular target: T2, EGFR-L858R (Homo sapiens, UniProt P00533, L858R); assay: MaMTH EGFR-interactor screen, lentiviral preys against EGFR-L858R bait (interaction score); type: cell-based; conditions: MaMTH interaction score of prey with EGFR-L858R bait
# T2 construct: with the advantage of testing full-length integral membrane proteins; (GGGGS)2 linker-Cub (human ubiquitin aa 35-76)-GAL4(1-147)-mNFkB(364-550) (C); expressed in transfected cells
# Protocol: as §1, §2, §3
Molecule,EGFR-Wt mean [1],Wt/L858R [2],EGFR-L858R mean [3]
"SH3GL3 (protein, UniProt Q99963 1-347, looked up) Endophilin-A3: MSVAGLKKQFHKASQLFSEKISGAEGTKLDDEFLDMERKIDVTNKVVAEILSKTTEYLQPNPAYRAKLGMLNTVSKIRGQVKTTGYPQTEGLLGDCMLKYGKELGEDSTFGNALIEVGESMKLMAEVKDSLDINVKQTFIDPLQLLQDKDLKEIGHHLKKLEGRRLDYDYKKKRVGKIPDEEVRQAVEKFEESKELAERSMFNFLENDVEQVSQLAVFIEAALDYHRQSTEILQELQSKLQMRISAASSVPRREYKPRPVKRSSSELNGVSTTSVVKTTGSNIPMDQPCCRGLYDFEPENQGELGFKEGDIITLTNQIDENWYEGMIHGESGFFPINYVEVIVPLPQ",3.41,1.05,3.26
"GRAP2 (protein, UniProt O75791 1-330, looked up) GRB2-related adapter protein 2: MEAVAKFDFTASGEDELSFHTGDVLKILSNQEEWFKAELGSQEGYVPKNFIDIQFPKWFHEGLSRHQAENLLMGKEVGFFIIRASQSSPGDFSISVRHEDDVQHFKVMRDNKGNYFLWTEKFPSLNKLVDYYRTNSISRQKQIFLRDRTREDQGHRGNSLDRRSQGGPHLSGAVGEEIRPSMNRKLSDHPPTLPLQQHQHQPQPPQYAPAPQQLQQPPQQRYLQHHHFHQERRGGSLDINDGHCGTGLGSEMNAALMHRRHTDPVQLQAAGRVRWARALYDFEALEDDELGFHSGEVVEVLDSSNPSWWTGRLHNKLGLFPANYVAPMTR",1.79,0.22,8.12
"RAPGEF1 (protein, UniProt Q13905 1-1077, looked up) Rap guanine nucleotide …: MDTDSQRSHLSSFTMKLMDKFHSPKIKRTPSKKGKPAEVSVKIPEKPVNKEATDRFLPEGYPLPLDLEQQAVEFMSTSAVASRSQRQKNLSWLEEKEKEVVSALRYFKTIVDKMAIDKKVLEMLPGSASKVLEAILPLVQNDPRIQHSSALSSCYSRVYQSLANLIRWSDQVMLEGVNSEDKEMVTTVKGVIKAVLDGVKELVRLTIEKQGRPSPTSPVKPSSPASKPDGPAELPLTDREVEILNKTTGMSQSTELLPDATDEEVAPPKPPLPGIRVVDNSPPPALPPKKRQSAPSPTRVAVVAPMSRATSGSSLPVGINRQDFDVDCYAQRRLSGGSHSYGGESPRLSPCSSIGKLSKSDEQLSSLDRDSGQCSRNTSCETLDHYDPDYEFLQQDLSNADQIPQQTAWNLSPLPESLGESGSPFLGPPFQLPLGGHPQPDGPLAPGQQTDTPPALPEKKRRSAASQTADGSGCRVSYERHPSQYDNISGEDLQSTAPIPSVPYAPFAAILPFQHGGSSAPVEFVGDFTAPESTGDPEKPPPLPEKKNKHMLAYMQLLEDYSEPQPSMFYQTPQNEHIYQQKNKLLMEVYGFSDSFSGVDSVQELAPPPALPPKQRQLEPPAGKDGHPRDPSAVSGVPGKDSRDGSERAPKSPDALESAQSEEEVDELSLIDHNEIMSRLTLKQEGDDGPDVRGGSGDILLVHATETDRKDLVLYCEAFLTTYRTFISPEELIKKLQYRYEKFSPFADTFKKRVSKNTFFVLVRVVDELCLVELTEEILKLLMELVFRLVCNGELSLARVLRKNILDKVDQKKLLRCATSSQPLAARGVAARPGTLHDFHSHEIAEQLTLLDAELFYKIEIPEVLLWAKEQNEEKSPNLTQFTEHFNNMSYWVRSIIMLQEKAQDRERLLLKFIKIMKHLRKLNNFNSYLAILSALDSAPIRRLEWQKQTSEGLAEYCTLIDSSSSFRAYRAALSEVEPPCIPYLGLILQDLTFVHLGNPDYIDGKVNFSKRWQQFNILDSMRCFQQAHYDMRRNDDIINFFNDFSDHLAEEALWELSLKIKPRNITRRKTDREEKT",3.48,1.10,3.15
"TNK2 (protein, UniProt Q07912 1-1038, looked up) Activated CDC42 kinase 1: MQPEEGTGWLLELLSEVQLQQYFLRLRDDLNVTRLSHFEYVKNEDLEKIGMGRPGQRRLWEAVKRRKALCKRKSWMSKVFSGKRLEAEFPPHHSQSTFRKTSPAPGGPAGEGPLQSLTCLIGEKDLRLLEKLGDGSFGVVRRGEWDAPSGKTVSVAVKCLKPDVLSQPEAMDDFIREVNAMHSLDHRNLIRLYGVVLTPPMKMVTELAPLGSLLDRLRKHQGHFLLGTLSRYAVQVAEGMGYLESKRFIHRDLAARNLLLATRDLVKIGDFGLMRALPQNDDHYVMQEHRKVPFAWCAPESLKTRTFSHASDTWMFGVTLWEMFTYGQEPWIGLNGSQILHKIDKEGERLPRPEDCPQDIYNVMVQCWAHKPEDRPTFVALRDFLLEAQPTDMRALQDFEEPDKLHIQMNDVITVIEGRAENYWWRGQNTRTLCVGPFPRNVVTSVAGLSAQDISQPLQNSFIHTGHGDSDPRHCWGFPDRIDELYLGNPMDPPDLLSVELSTSRPPQHLGGVKKPTYDPVSEDQDPLSSDFKRLGLRKPGLPRGLWLAKPSARVPGTKASRGSGAEVTLIDFGEEPVVPALRPCAPSLAQLAMDACSLLDETPPQSPTRALPRPLHPTPVVDWDARPLPPPPAYDDVAQDEDDFEICSINSTLVGAGVPAGPSQGQTNYAFVPEQARPPPPLEDNLFLPPQGGGKPPSSAQTAEIFQALQQECMRQLQAPAGSPAPSPSPGGDDKPQVPPRVPIPPRPTRPHVQLSPAPPGEEETSQWPGPASPPRVPPREPLSPQGSRTPSPLVPPGSSPLPPRLSSSPGKTMPTTQSFASDPKYATPQVIQAPGPRAGPCILPIVRDGKKVSSTHYYLLPERPSYLERYQRFLREAQSPEEPTPLPVPLLLPPPSTPAPAAPTATVRPMPQAALDPKANFSTNNSNPGARPPPPRATARLPQRGCPGDGPEAGRPADKIQMAMVHGVTTEECQAALQCHGWSVQRAAQYLKVEQLFGLGLRPRGECHKVLEMFDWNLEQAGCHLLGSWGPAHHKR",1.51,1.16,1.30
"RIN1 (protein, UniProt Q13671 1-783, looked up) Ras and Rab interactor 1: MESPGESGAGSPGAPSPSSFTTGHLAREKPAQDPLYDVPNASGGQAGGPQRPGRVVSLRERLLLTRPVWLQLQANAAAALHMLRTEPPGTFLVRKSNTRQCQALCMRLPEASGPSFVSSHYILESPGGVSLEGSELMFPDLVQLICAYCHTRDILLLPLQLPRAIHHAATHKELEAISHLGIEFWSSSLNIKAQRGPAGGPVLPQLKARSPQELDQGTGAALCFFNPLFPGDLGPTKREKFKRSFKVRVSTETSSPLSPPAVPPPPVPVLPGAVPSQTERLPPCQLLRRESSVGYRVPAGSGPSLPPMPSLQEVDCGSPSSSEEEGVPGSRGSPATSPHLGRRRPLLRSMSAAFCSLLAPERQVGRAAAALMQDRHTAAGQLVQDLLTQVRAGPEPQELQGIRQALSRARAMLSAELGPEKLLSPKRLEHVLEKSLHCSVLKPLRPILAARLRRRLAADGSLGRLAEGLRLARAQGPGAFGSHLSLPSPVELEQVRQKLLQLLRTYSPSAQVKRLLQACKLLYMALRTQEGEGAGADEFLPLLSLVLAHCDLPELLLEAEYMSELLEPSLLTGEGGYYLTSLSASLALLSGLGQAHTLPLSPVQELRRSLSLWEQRRLPATHCFQHLLRVAYQDPSSGCTSKTLAVPPEASIATLNQLCATKFRVTQPNTFGLFLYKEQGYHRLPPGALAHRLPTTGYLVYRRAEWPETQGAVTEEEGSGQSEARSRGEEQGCQGDGDAGVKASPRDIREQSETTAEGGQGQAQEGPAQPGEPEAEGSRAAEE",2.19,1.19,1.84
"STAM (protein, UniProt Q92783 2-540, looked up) Signal transducing adapter …: PLFATNPFDQDVEKATSEMNTAEDWGLILDICDKVGQSRTGPKDCLRSIMRRVNHKDPHVAMQALTLLGACVSNCGKIFHLEVCSRDFASEVSNVLNKGHPKVCEKLKALMVEWTDEFKNDPQLSLISAMIKNLKEQGVTFPAIGSQAAEQAKASPALVAKDPGTVANKKEEEDLAKAIELSLKEQRQQSTTLSTLYPSTSSLLTNHQHEGRKVRAIYDFEAAEDNELTFKAGEIITVLDDSDPNWWKGETHQGIGLFPSNFVTADLTAEPEMIKTEKKTVQFSDDVQVETIEPEPEPAFIDEDKMDQLLQMLQSTDPSDDQPDLPELLHLEAMCHQMGPLIDEKLEDIDRKHSELSELNVKVMEALSLYTKLMNEDPMYSMYAKLQNQPYYMQSSGVSGSQVYAGPPPSGAYLVAGNAQMSHLQSYSLPPEQLSSLSQAVVPPSANPALPSQQTQAAYPNTMVSSVQGNTYPSQAPVYSPPPAATAAAATADVTLYQNAGPNMPQVPNYNLTSSTLPQPGGSQQPPQPQQPYSQKALL",0.56,0.23,2.49
"CSK (protein, UniProt P41240 2-450, looked up) Tyrosine-protein kinase CSK: SAIQAAWPSGTECIAKYNFHGTAEQDLPFCKGDVLTIVAVTKDPNWYKAKNKVGREGIIPANYVQKREGVKAGTKLSLMPWFHGKITREQAERLLYPPETGLFLVRESTNYPGDYTLCVSCDGKVEHYRIMYHASKLSIDEEVYFENLMQLVEHYTSDADGLCTRLIKPKVMEGTVAAQDEFYRSGWALNMKELKLLQTIGKGEFGDVMLGDYRGNKVAVKCIKNDATAQAFLAEASVMTQLRHSNLVQLLGVIVEEKGGLYIVTEYMAKGSLVDYLRSRGRSVLGGDCLLKFSLDVCEAMEYLEGNNFVHRDLAARNVLVSEDNVAKVSDFGLTKEASSTQDTGKLPVKWTAPEALREKKFSTKSDVWSFGILLWEIYSFGRVPYPRIPLKDVVPRVEKGYKMDAPDGCPPAVYEVMKNCWHLDAAMRPSFLQLREQLEHIKTHELHL",8.40,1.43,5.86
